Measurements taken from patent US20140205597A1 (published 2014).

Assays:
[1] = target: T1, purified interference factor(s) from serum of Donor A; experiment: Biacore, immobilized interference factor
T1 construct: text names Donors 8, 19 and 30

[2] = target: T2, monoclonal antibody 21-4-3; experiment: Biacore, captured 21-4-3
T2 construct: mouse IgG1 heavy chain, kappa light chain; also called mAb21-4-3; produced by hybridoma ABH0015 (LMBP-9680-CB)
Protocol: Binding measurements were performed using a Biacore T100 using a CM5 T120416 sensor chip, with running buffer HBS-EP+, 25° C. […] The anti-mouse IgG used was a polyclonal rabbit anti-mouse IgG antibodies reacting with all IgG subclasses, IgA and IgM (GE Healthcare; Cat#BR-1008-38; Lot#10056316). Immobilisation of the anti-mouse IgG was performed using manual amine coupling using a 7 minute injection of EDC/NHS for activation and a 7 minute injection of 1M ethanolamine HCl pH 8.5 for deactivation (Biacore, amine coupling kit).

[3] = target: T3, purified interference factor(s) from serum of Donor B; experiment: Biacore, immobilized interference factor
T3 construct: text names Donors 8, 19 and 30

[4] = target: T4, purified interference factor(s) from serum of Donor C; experiment: Biacore, immobilized interference factor
T4 construct: text names Donors 8, 19 and 30

| Binder | binding vs Reference Sequence (=100%) [1] | binding vs Reference Sequence (=100%) [2] | binding vs Reference Sequence (=100%) [3] | binding vs Reference Sequence (=100%) [4] |
| --- | --- | --- | --- | --- |
| SEQ ID NO 47 (VHH) VHH: EVQLVESGGGLVQPGGSLRLSCAASGSVFKINVMAWYRQAPGKGRELVAGIISGGSTSYADSVKGRFTISRDNAKNTLYLQMNSLRPEDTAVYYCAFITTESDYDLGRRYWGQGTLVTVSS | 1% | 4% |  |  |
| SEQ ID NO 38 (bispecific antibody, Nanobody construct; C-terminal: A) EVQLVESGGGLVQPGGSLRLSCAASGFTFSSYAMSWVRQAPGKGLEWVSGIKSSGDSTRYAGSVKGRFTISRDNAKNTLYLQMNSLRPEDTAVYYCAKSRVSRTGLYTYDNRGQGTLVTVSSGGGGSGGGGSGGGGSGGGGSEVQLVESGGGLVQPGGSLRLSCAASGRTFNNYAMGWFRQAPGKEREFVAAITRSGVRSGVSAIYGDSVKDRFTISRDNAKNTLYLQMNSLRPEDTAVYYCAASAIGSGALRRFEYDYSGQGTLVTVSSA | 9% | 0% | 25% | 7% |
| SEQ ID NO 42 (VHH, Nanobody construct; C-terminal: A) EVQLVESGGGLVQPGGSLRLSCAASGRTFSYNPMGWFRQAPGKGRELVAAISRTGGSTYYPDSVEGRFTISRDNAKRMVYLQMNSLRAEDTAVYYCAAAGVRAEDGRVRTLPSEYTFWGQGTQVTVSSAAAEVQLVESGGGLVQPGGSLRLSCAASGRTFSYNPMGWFRQAPGKGRELVAAISRTGGSTYYPDSVEGRFTISRDNAKRMVYLQMNSLRAEDTAVYYCAAAGVRAEDGRVRTLPSEYTFWGQGTQVTVSSA | 1% | 0% | 4% |  |
| SEQ ID NO 43 (bispecific antibody, Nanobody construct; C-terminal: A) DVQLVESGGGLVQPGGSLRLSCAASGFILDYYAIGWFRQAPGKEREGVLCIDASDDITYYADSVKGRFTISRDNSKNTVYLQMNSLRPEDTAVYYCATPIGLSSSCLLEYDYDYWGQGTLVTVSSGGGGSGGGSEVQLLESGGGLVQPGGSLRLSCAASGFTFRSFGMSWVRQAPGKGPEWVSSISGSGSDTLYADSVKGRFTISRDNSKNTLYLQMNSLRPEDTAVYYCTIGGSLSRSSQGTLVTVSSA | 3% | 3% | 20% |  |
| SEQ ID NO 48 (VHH) VHH: EVQLVESGGGLVQPGGSLRLSCIASGLPFSTKSMGWFRQAPGKEREFVARISPGGTSRYYGDFVKGRFAISRDNAKNTTWLQMNSLKAEDTAVYYCASGERSTYIGSNYYRTNEYDYWGTGTQVTVSS | 0% | 3% |  |  |
| SEQ ID NO 49 (VHH, C-terminal tag plus humanizing mutations) VHH: EVQLLESGGGLVQPGGSLRLSCAASGLPFSTKSMGWFRQAPGKGREFVSRISPGGTSRYYGDFVKGRFTISRDNSKNTLYLQMNSLRAEDTAVYYCASGERSTYIGSNYYRTNEYDYWGQGTLVTVSS | 0% | 4% |  |  |
| SEQ ID NO 45 (VHH, mutations: P14A, P41T, S62F, S74A, S82bN, R83K, L108Q) VHH: EVQLVESGGGLVQAGGSLRLSCAASRSIGRLDRMGWYRHRTGEPRELVATITGGSSINYGDFVKGRFTISIDNAKNTVYLQMNNLKPEDTAVYYCNFNKYVTSRDTWGQGTQVTVSS | 0% | 22% |  |  |
| SEQ ID NO 46 (VHH, C-terminal tag) VHH: EVQLVESGGGLVQAGGSLRLSCAASRSIGRLDRMGWYRHRTGEPRELVATITGGSSINYGDFVKGRFTISIDNAKNTVYLQMNNLKPEDTAVYYCNFNKYVTSRDTWGQGTQVTVSS | 0% | 2% |  |  |
| SEQ ID NO 71 (VHH, S113G) VHH: EVQLVESGGGLVQPGGSLRLSCAASRSIGRLDRMGWYRHRPGEPRELVATITGGSSINYGDSVKGRFTISIDNSKNTVYLQMNSLRPEDTAVYYCNFNKYVTSRDTWGQGTLVTVSG | 88% | 44% | 105% | 87% |
| SEQ ID NO 81 (VHH, L11V) VHH: EVQLVESGGGVVQPGGSLRLSCAASRSIGRLDRMGWYRHRPGEPRELVATITGGSSINYGDSVKGRFTISIDNSKNTVYLQMNSLRPEDTAVYYCNFNKYVTSRDTWGQGTLVTVSS | 94% | 75% | 50% | 89% |
| SEQ ID NO 83 (VHH, T87A) VHH: EVQLVESGGGLVQPGGSLRLSCAASRSIGRLDRMGWYRHRPGEPRELVATITGGSSINYGDSVKGRFTISIDNSKNTVYLQMNSLRPEDAAVYYCNFNKYVTSRDTWGQGTLVTVSS | 56% | 79% | 73% | 61% |
